The results in this text go back to patent US20260174833A1.

One test concerns the target TGFβ1 (R&D systems) (UniProt P01137). The test is described as follows: cell-based or functional assay.
The target in test [1] is IL2Rβ and common γ chain on 32Dβ cells. The test can be described thus: cell-based or functional assay.

Sequence of UniProt P01137 (P01137 279-390 limits assumed): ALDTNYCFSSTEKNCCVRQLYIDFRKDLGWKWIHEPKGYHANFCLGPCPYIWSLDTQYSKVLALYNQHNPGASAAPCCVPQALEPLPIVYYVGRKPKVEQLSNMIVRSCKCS

For “TGFR-Fc (R&D Systems) (from UniProt P37173 24-159) (Fc fusion)”, the IC50, inhibition of TGFβ1 activity in HEK-Blue TGFβ cells (QUANTI-Blue OD 620-655 nM) with TGFβ1 (R&D systems) was 0.461 nM.

With “recombinant IL-15 (from UniProt P40933 49-162) (ligand)”, in test [1], the EC50, 32Dβ cell proliferation (WST1, absorbance at 450 nM) worked out at 0.0106 nM.
